The target in assay [1] is T1, FZD1 CRD, Fc-tagged (human, UniProt Q9UP38 70-250).
T1 construct: domain: CRD; Bought; not shown: Fc tag of the purchased fusion
Put plainly: kinetic table (called BLI in paragraph 170).

Assay [2] has as its target T2, FZD2 CRD, Fc-tagged (human, UniProt Q14332 24-190).
T2 construct: domain: CRD; Bought; not shown: Fc tag of the purchased fusion
The assay can be described thus: kinetic table (called BLI in paragraph 170).

The target in assay [3] is T3, FZD7 CRD, Fc-tagged (human, UniProt O75084 33-185). Put plainly: kinetic table (called BLI in paragraph 170).
In the next assay the target is T4, FZD6 ECD, Fc-tagged (human, UniProt O60353 19-132).
T4 construct: range 19-132; Made in Expi293 cells; single protomer species purified by size exclusion; not shown: human IgG1 Fc of the pFUSE-hIgG1-Fc2 vector (Invivogen)
T4 sequence (looked up): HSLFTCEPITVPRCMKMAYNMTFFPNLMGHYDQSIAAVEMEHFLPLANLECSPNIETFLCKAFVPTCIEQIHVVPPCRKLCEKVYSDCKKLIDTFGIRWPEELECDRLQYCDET
Put plainly: kinetic table (called BLI in paragraph 35).

In another assay the target is T5, FZD9 CRD, Fc-tagged (human, UniProt O00144 23-187).
T5 construct: domain: CRD; Bought; not shown: Fc tag of the purchased fusion
T5 sequence (looked up): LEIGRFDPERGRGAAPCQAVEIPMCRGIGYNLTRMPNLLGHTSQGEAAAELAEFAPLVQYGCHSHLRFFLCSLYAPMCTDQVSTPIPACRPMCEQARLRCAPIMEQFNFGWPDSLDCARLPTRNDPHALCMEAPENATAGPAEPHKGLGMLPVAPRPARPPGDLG
The assay can be described thus: kinetic table (called BLI in paragraph 35).

In another assay the target is FcRn (UniProt P55899 24-297; P61769 21-119). The assay can be described thus: steady-state BLI at pH 6.0, FcRn immobilised, serial dilutions (0.1-225 nM) of the FLAg in solution.
Chain of FcRn (P55899 24-297 limits assumed, chain 1 of 2): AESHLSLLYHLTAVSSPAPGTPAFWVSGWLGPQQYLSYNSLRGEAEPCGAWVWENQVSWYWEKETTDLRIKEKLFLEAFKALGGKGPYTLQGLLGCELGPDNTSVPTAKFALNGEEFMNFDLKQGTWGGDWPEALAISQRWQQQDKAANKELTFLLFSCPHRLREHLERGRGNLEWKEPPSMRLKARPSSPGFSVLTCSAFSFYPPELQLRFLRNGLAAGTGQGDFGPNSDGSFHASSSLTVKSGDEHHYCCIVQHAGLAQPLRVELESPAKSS
Chain of FcRn (P61769 21-119 limits assumed, chain 2 of 2): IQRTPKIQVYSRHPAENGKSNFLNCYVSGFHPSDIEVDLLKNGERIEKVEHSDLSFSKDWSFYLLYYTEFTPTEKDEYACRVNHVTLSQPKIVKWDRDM
Assay [4] deals with T1, FZD1 CRD, Fc-tagged. Put plainly: kinetic table (called BLI in paragraph 170); the row labels kd and ka are interchanged on the sheet: the KD row equals the 10^-3 row divided by the 10^5 row.
Assay [5] deals with T2, FZD2 CRD, Fc-tagged. Described as above.
Assay [6] concerns the target T3, FZD7 CRD, Fc-tagged. Described as above.
The target of assay [7] is T6, human LRP6 ECD, Fc-tagged (human, UniProt O75581 20-1370).
T6 construct: extracellular domain; Bought; also called LRP co-receptor; not shown: Fc tag of the purchased fusion
T6 sequence (looked up): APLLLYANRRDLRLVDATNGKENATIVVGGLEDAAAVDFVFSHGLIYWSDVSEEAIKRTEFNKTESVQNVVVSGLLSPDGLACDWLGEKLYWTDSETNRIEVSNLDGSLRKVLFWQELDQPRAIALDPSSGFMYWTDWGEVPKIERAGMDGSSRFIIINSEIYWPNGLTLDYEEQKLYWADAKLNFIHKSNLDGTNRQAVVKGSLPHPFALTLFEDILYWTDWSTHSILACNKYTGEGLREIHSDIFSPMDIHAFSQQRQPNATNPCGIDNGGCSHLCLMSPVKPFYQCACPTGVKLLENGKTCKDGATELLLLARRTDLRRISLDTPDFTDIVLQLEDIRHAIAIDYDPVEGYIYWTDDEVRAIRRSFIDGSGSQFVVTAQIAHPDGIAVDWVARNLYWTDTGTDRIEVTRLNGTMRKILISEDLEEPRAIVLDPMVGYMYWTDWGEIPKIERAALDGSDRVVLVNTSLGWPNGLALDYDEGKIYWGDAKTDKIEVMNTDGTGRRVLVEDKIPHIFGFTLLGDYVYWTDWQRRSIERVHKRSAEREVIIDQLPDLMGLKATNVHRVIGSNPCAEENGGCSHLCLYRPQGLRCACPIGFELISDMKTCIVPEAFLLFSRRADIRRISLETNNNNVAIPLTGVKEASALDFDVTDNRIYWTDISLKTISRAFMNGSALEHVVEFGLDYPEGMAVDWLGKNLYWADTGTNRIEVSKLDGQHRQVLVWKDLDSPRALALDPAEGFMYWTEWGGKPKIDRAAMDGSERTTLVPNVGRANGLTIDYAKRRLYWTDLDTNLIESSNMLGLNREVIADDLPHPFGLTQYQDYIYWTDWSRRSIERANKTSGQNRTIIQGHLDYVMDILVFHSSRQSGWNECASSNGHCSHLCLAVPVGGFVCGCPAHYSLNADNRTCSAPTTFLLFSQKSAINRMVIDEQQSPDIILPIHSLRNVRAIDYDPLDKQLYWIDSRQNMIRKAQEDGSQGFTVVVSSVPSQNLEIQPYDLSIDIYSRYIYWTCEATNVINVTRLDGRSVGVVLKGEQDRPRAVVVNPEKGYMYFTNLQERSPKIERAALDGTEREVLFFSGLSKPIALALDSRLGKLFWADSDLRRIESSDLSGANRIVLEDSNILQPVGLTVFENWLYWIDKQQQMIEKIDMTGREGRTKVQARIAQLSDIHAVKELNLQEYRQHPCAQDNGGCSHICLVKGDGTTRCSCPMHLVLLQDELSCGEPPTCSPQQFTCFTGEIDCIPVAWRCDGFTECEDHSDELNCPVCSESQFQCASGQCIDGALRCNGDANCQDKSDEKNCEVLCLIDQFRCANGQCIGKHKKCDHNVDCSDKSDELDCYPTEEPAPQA
The description is as above.

Experimental findings from patent publication US20210032352A1 (ANTERA THERAPEUTICS, published 2021) are described below.

The Kd is the equilibrium constant for the complex coming apart. A higher Kd goes with lower affinity. The term EC50 (read off the curve) denotes the concentration that produces a half-maximal response. High values mean lower potency in that assay, low ones higher potency in that assay. For orientation: koff means the first-order rate constant of dissociation. Higher therefore signals a short-lived complex. The kon is a measure of how fast the partners come together. Lower therefore signals slower complex formation.

T1 sequence (Q9UP38 70-250): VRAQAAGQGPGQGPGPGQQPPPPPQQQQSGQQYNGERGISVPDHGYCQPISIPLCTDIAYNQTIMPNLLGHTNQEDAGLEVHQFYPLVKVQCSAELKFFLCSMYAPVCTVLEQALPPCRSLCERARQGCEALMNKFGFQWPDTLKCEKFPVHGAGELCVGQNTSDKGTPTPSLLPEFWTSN
Description for FcRn: Coated sensors were equilibrated in assay buffer (PBS, 1% BSA, 0.05% Tween20) and transferred into Fc receptor solutions. Association was monitored for 600 seconds, the sensors were transferred to assay buffer, and dissociation was monitored for 600 seconds. CD64 and all other Fc receptors were assayed at 50 nM or 300 nM, respectively, at pH 7.4, unless as indicated. Shake speed was 1000 rpm and temperature was 25° C. End-point response values were taken at the end of the association phase and were normalized to isotype controls. […] The association and disassociation times were 600 or 1200 seconds, respectively.

B1: F^P+P-L6^1+3 (5019-K/H-2539-2542) (bispecific antibody)
chain 1: EVQLVESGGGLVQPGGSLRLSCAASGFNIGSSSIHWVRQAPGKGLEWVASIYSAFASTSYADSVKGRFTISADTSKNTAYLQMNSLRAEDTAVYYCARYHFPFGFALDYWGQGTLVTVSSGGGGSDIQMTQSPSSLSASVGDRVTITCRASQSVSSAVAWYQQKPGKAPKLLIYSASSLYSGVPSRFSGSRSGTDFTLTISSLQPEDFATYYCQQGVYLFTFGQGTKVEIKLEDKTHTKVEPKTSDKTHTCPPCPAPELLGGPSVFLFPPKPKDTLMISRTPEVTCVVVDVSHEDPEVKFNWYVDGVEVHNAKTKPREEQYNSTYRVVSVLTVLHQDWLNGKEYKCKVSNKALPAPIEKTISKAKGQPREPMVFDLPPSREEMTKNQVSLWCMVKGFYPSDIAVEWESNGQPENNYKTTPPVLDSDGSFFLYSKLTVDKSRWQQGNVFSCSVMHEALHNHYTQKSLSLSPGKSGSETPGTSESATPESGGGEVQLVESGGGLVQPGGSLRLSCAASGFNISYSSIHWVRQAPGKGLEWVAYISSYYGYTYYADSVKGRFTISADTSKNTAYLQMNSLRAEDTAVYYCARAHYFPWAGAMDYWGQGTLVTVSSGGGGSDIQMTQSPSSLSASVGDRVTITCRASQSVSSAVAWYQQKPGKAPKLLIYSASSLYSGVPSRFSGSRSGTDFTLTISSLQPEDFATYYCQQYYWPITFGQGTKVEIK
chain 2: EVQLVESGGGLVQPGGSLRLSCAASGFNIGSSSIHWVRQAPGKGLEWVASIYSAFASTSYADSVKGRFTISADTSKNTAYLQMNSLRAEDTAVYYCARYHFPFGFALDYWGQGTLVTVSSGGGGSDIQMTQSPSSLSASVGDRVTITCRASQSVSSAVAWYQQKPGKAPKLLIYSASSLYSGVPSRFSGSRSGTDFTLTISSLQPEDFATYYCQQGVYLFTFGQGTKVEIKLEDKTHTKVEPKSSDKTHNCPPCPAPELLGGPSVFLFPPKPKDTLMISRTPEVTCVVVDVSHEDPEVKFNWYVDGVEVHNAKTKPREEQYNSTYRVVSVLTVLHQDWLNGKEYKCKVSNKALPAPIEKTISKAKGQPREPQVYTLPPIRELMTSNQVSLSCAVKGFYPSDIAVEWESNGQPENNYKTTPPVLDSDGSFFLVSKLTVDKSRWQQGNVFSCSVMHEALHNHYTQKSLSLSPGKSGSETPGTSESATPESGGGEVQLVESGGGLVQPGGSLRLSCAASGFNISSYYIHWVRQAPGKGLEWVASIYSSYGYTSYADSVKGRFTISADTSKNTAYLQMNSLRAEDTAVYYCARTVRGSKKPYFSGWAMDYWGQGTLVTVSSGGGGSDIQMTQSPSSLSASVGDRVTITCRASQSVSSAVAWYQQKPGKAPKLLIYSASSLYSGVPSRFSGSRSGTDFTLTISSLQPEDFATYYCQQYSWGPFTFGQGTKVEIK
With B1, the Kd with FZD1 CRD, Fc-tagged [1] was under 10 pM; with FZD2 CRD, Fc-tagged [2], 40 pM; with FZD7 CRD, Fc-tagged [3], 60 pM. Besides, the binding result with FZD6 ECD, Fc-tagged is listed as “no binding”; with FZD9 CRD, Fc-tagged it was “no binding”. The “EC50 (read off the curve)” value with FcRn was about 10000 pM. Further, the koff is under 1e-06 s⁻¹ with FZD1 CRD, Fc-tagged [4]; 1.9e-05 s⁻¹ in the assay with FZD2 CRD, Fc-tagged [5]; 2.9e-05 s⁻¹ with FZD7 CRD, Fc-tagged [6]; 0.00181 s⁻¹ in [7]. The kon in the assay with FZD1 CRD, Fc-tagged [4] was 395000 M⁻¹ s⁻¹; in the assay with FZD2 CRD, Fc-tagged [5] it was 479000 M⁻¹ s⁻¹; with FZD7 CRD, Fc-tagged [6], 509000 M⁻¹ s⁻¹; in assay [7] it was 152000 M⁻¹ s⁻¹.
